Series [1] relates to HeLa Kyoto. Briefly: solubility in G1/S (NP-40 vs SDS abundance) (log2 ratio); higher = more soluble. Conditions: cell cycle stage: G1/S.
The test system of series [2] is HeLa Kyoto. Briefly: melting temperature (median over replicates), in situ; higher = more thermally stable.
Series [3] concerns HeLa Kyoto. Briefly: solubility change mitosis vs G1/S (difference of NP-40 vs SDS log2 ratios) (log2 ratio difference); higher = more soluble in mitosis.
Series [4] relates to HeLa Kyoto. Briefly: thermal stability score vs G1/S (z-score of summed log2 fold changes over temperatures); higher = more thermally stable than in G1/S.
[5] abbreviates: cell cycle stage: early G1 (4.5 h after nocodazole release).
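Wherever melting temperature (median over replicates), in situ is given: HeLa Kyoto cells synchronized by double thymidine or nocodazole block, proteins quantified by TMT10plex mass spectrometry, three independent biological replicates.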
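Wherever solubility change mitosis vs G1/S (difference of NP-40 vs SDS log2 ratios) is given: synchronized HeLa Kyoto cells (double thymidine block for G1/S, nocodazole release for mitosis), protein amounts in NP-40 versus SDS lysates quantified by mass spectrometry, three biological replicates.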
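Wherever solubility in G1/S (NP-40 vs SDS abundance) is given: HeLa Kyoto cells arrested at G1/S by double thymidine block, proteins quantified by TMT10plex mass spectrometry in mild NP-40 versus SDS extracts, three biological replicates.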
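Wherever thermal stability score vs G1/S (z-score of summed log2 fold changes over temperatures) is given: synchronized HeLa Kyoto cells, proteins quantified by TMT10plex mass spectrometry, three biological replicates, mitosis taken 0.5 h after nocodazole release, G1/S directly after double thymidine block.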

On to “MLADLGLIGTIGEDDEVPVEPESDSGDEEEEGPIVLGRRQKALGKNRSADFNPDFVFTEKEGTYDGSWALADVMSQLKKKRAATTLDEKIEKVRKKRKTEDKEAKSGKLEKEKEAKEGSEPKEQEDLQENDEEGSEDEASETDYSSADENILTKADTLKVKDRKKKKKKGQEAGGFFEDASQYDENLSFQDMNLSRPLLKAITAMGFKQPTPIQKACIPVGLLGKDICACAATGTGKTAAFALPVLERLIYKPRQAPVTRVLVLVPTRELGIQVHSVTRQLAQFCNITTCLAVGGLDVKSQEAALRAAPDILIATPGRLIDHLHNCPSFHLSSIEVLILDEADRMLDEYFEEQMKEIIRMCSHHRQTMLFSATMTDEVKDLASVSLKNPVRIFVNSNTDVAPFLRQEFIRIRPNREGDREAIVAALLTRTFTDHVMLFTQTKKQAHRMHILLGLMGLQVGELHGNLSQTQRLEALRRFKDEQIDILVATDVAARGLDIEGVKTVINFTMPNTIKHYVHRVGRTARAGRAGRSVSLVGEDERKMLKEIVKAAKAPVKARILPQDVILKFRDKIEKMEKDVYAVLQLEAEEKEMQQSEAQINTAKRLLEKGKEAVVQEPERSWFQTKEERKKEKIAKALQEFDLALRGKKKRKKFMKDAKKKGEMTAEERSQFEILKAQMFAERLAKRNRRAKRARAMPEEEPVRGPAKKQKQGKKSVFDEELTNTSKKALKQYRAGPSFEERKQLGLPHQRRGGNFKSKSRYKRRK [DDX27]”, for which, in the series on HeLa Kyoto [1], the “solubility in G1/S (log2)” value was -2.35. Also, the melting temperature worked out at 52.4 °C with HeLa Kyoto [2] (cell cycle stage: G1/S) and 52.2 °C in the series on HeLa Kyoto [2] (cell cycle stage: mitosis). Also, in the series on HeLa Kyoto [3], the “solubility change mitosis (log2)” value is 1.15. The values for the thermal stability score in the series on HeLa Kyoto [4] (setting [5]) and in the series on HeLa Kyoto [4] (cell cycle stage: mitosis) were 1.57 and 2.15, respectively.

On to “MLALISRLLDWFRSLFWKEEMELTLVGLQYSGKTTFVNVIASGQFSEDMIPTVGFNMRKVTKGNVTIKIWDIGGQPRFRSMWERYCRGVNAIVYMIDAADREKIEASRNELHNLLDKPQLQGIPVLVLGNKRDLPNALDEKQLIEKMNLSAIQDREICCYSISCKEKDNIDITLQWLIQHSKSRRS [ARL8B]”, for which, in the series on HeLa Kyoto [1], the “solubility in G1/S (log2)” value was -0.0397. The values for the melting temperature in the series with HeLa Kyoto [2] (cell cycle stage: G1/S) and in the series on HeLa Kyoto [2] (cell cycle stage: mitosis) were 55.2 °C and 56 °C, respectively. For the same sequence, the “solubility change mitosis (log2)” value in the series on HeLa Kyoto [3] was -0.232. The results for the thermal stability score in the series with HeLa Kyoto [4] (setting [5]) and in the series on HeLa Kyoto [4] (cell cycle stage: mitosis) were -1.93 and -1.85, respectively.

As to “MLCSLLLCECLLLVAGYAHDDDWIDPTDMLNYDAASGTMRKSQAKYGISGEKDVSPDLSCADEISECYHKLDSLTYKIDECEKKKREDYESQSNPVFRRYLNKILIEAGKLGLPDENKGDMHYDAEIILKRETLLEIQKFLNGEDWKPGALDDALSDILINFKFHDFETWKWRFEDSFGVDPYNVLMVLLCLLCIVVLVATELWTYVRWYTQLRRVLIISFLFSLGWNWMYLYKLAFAQHQAEVAKMEPLNNVCAKKMDWTGSIWEWFRSSWTYKDDPCQKYYELLLVNPIWLVPPTKALAVTFTTFVTEPLKHIGKGTGEFIKALMKEIPALLHLPVLIIMALAILSFCYGAGKSVHVLRHIGGPESEPPQALRPRDRRRQEEIDYRPDGGAGDADFHYRGQMGPTEQGPYAKTYEGRREILRERDVDLRFQTGNKSPEVLRAFDVPDAEAREHPTVVPSHKSPVLDTKPKETGGILGEGTPKESSTESSQSAKPVSGQDTSGNTEGSPAAEKAQLKSEAAGSPDQGSTYSPARGVAGPRGQDPVSSPCG [CLCC1]”, the “solubility in G1/S (log2)” value with HeLa Kyoto [1] is -0.212. Moreover, the melting temperature was 56 °C with HeLa Kyoto [2] (cell cycle stage: G1/S) and 58.6 °C in the series with HeLa Kyoto [2] (cell cycle stage: mitosis). In addition, in the series on HeLa Kyoto [3], the “solubility change mitosis (log2)” value is -0.123. Moreover, the thermal stability score is -0.638 with HeLa Kyoto [4] (setting [5]) and 1.19 in the series on HeLa Kyoto [4] (cell cycle stage: mitosis).

Regarding “MLCVGRLGGLGARAAALPPRRAGRGSLEAGIRARRVSTSWSPVGAAFNVKPQGSRLDLFGERRGLFGVPELSAPEGFHIAQEKALRKTELLVDRACSTPPGPQTVLIFDELSDSLCRVADLADFVKIAHPEPAFREAAEEACRSIGTMVEKLNTNVDLYQSLQKLLADKKLVDSLDPETRRVAELFMFDFEISGIHLDKEKRKRAVDLNVKILDLSSTFLMGTNFPNKIEKHLLPEHIRRNFTSAGDHIIIDGLHAESPDDLVREAAYKIFLYPNAGQLKCLEELLSSRDLLAKLVGYSTFSHRALQGTIAKNPETVMQFLEKLSDKLSERTLKDFEMIRGMKMKLNPQNSEVMPWDPPYYSGVIRAERYNIEPSLYCPFFSLGACMEGLNILLNRLLGISLYAEQPAKGEVWSEDVRKLAVVHESEGLLGYIYCDFFQRADKPHQDCHFTIRGGRLKEDGDYQLPVVVLMLNLPRSSRSSPTLLTPSMMENLFHEMGHAMHSMLGRTRYQHVTGTRCPTDFAEVPSILMEYFANDYRVVNQFARHYQTGQPLPKNMVSRLCESKKVCAAADMQLQVFYATLDQIYHGKHPLRNSTTDILKETQEKFYGLPYVPNTAWQLRFSHLVGYGARYYSYLMSRAVASMVWKECFLQDPFNRAAGERYRREMLAHGGGREPMLMVEGMLQKCPSVDDFVSALVSDLDLDFETFLMDSE [MIPEP]”, in the series on HeLa Kyoto [1], the “solubility in G1/S (log2)” value was -0.0439. For the same sequence, the figures for the melting temperature with HeLa Kyoto [2] (cell cycle stage: G1/S) and in the series with HeLa Kyoto [2] (cell cycle stage: mitosis) were 51.2 °C and 50.4 °C, respectively. In the series on HeLa Kyoto [3], the “solubility change mitosis (log2)” value is -0.0647. The thermal stability score was 0.154 in the series with HeLa Kyoto [4] (setting [5]) and 0.0672 with HeLa Kyoto [4] (cell cycle stage: mitosis).

The record behind these values is the supplement of paper PMC5998384.
